Measurements published in the DeepSol protein solubility set.

Experiment: soluble on expression in E. coli; label from the status in PepcDB or PDB records

Sequence	soluble on expression in E. coli
MGSDKIHHHHHHMIVIEDVYKRYKTDHGPGKWILQGVNLTIPRNVNVGLIGSNGAGKSTLLRIIGGIDHPNKGKVERRCRLSWPMGQGGLEPTLTGRQNAKFVCRLHGHQDDLPERLIFIQDFSGLKDAFDEPVNTYSSGMRSRLQFAMSLAFDFDIYISDEVTAAGDAAFRDKAAAAFKGMTNRAGLIMVAHSESTLRQFCEAGILLYQGKAQWFDKIEEAFKAYKDTVQK	not soluble
GPGSMPTRPLLVKYETPVLLSEVKHKKALKEKKRVAVGAQSGPQAEDVLYSIIPPREFEENGQQWVQYVSSIPATRMDVINLQERLDSLLLERNARETGICPVREELYSQVFDELIRQVTVNCAERGLLLLRVRDELRMTLDAYRSLYESSAAYGMRKALQAEQSKIEMESKIQALEREKEELKQQVEELEYRCESIIQQEKEKFAEAERKHNEEVAFFRRTYQTLTTNLQTLCNATKA	soluble
MQLRYAFRVYPDAGQRLALARAFGCARVVFNDVVRAREDARKAGRPFQTAAGLSRKLITEAKRTAERSWLGEVSAVVLQQSLRDAETAYRNFFASLKGTRKGPRVGPPRYKSRKDARQSIRFTANARWSITDSGRLNLPKIGAVKVKWSRTLPTIPTSVTVIKDAAGRYFASFVVDTDPAADRVRMPDADRTVGIDLGLTHFAVLSDGTKIGSPRFLRRAEKKLKKAQQELSRKQMGSKNRDRARLKVARAHAKVADARREFHHQLSTRLISENQGIAVEDLSVAGLARTRLAKSVHDAGWSSFVGMLKYKAERYGRTLVVIGRFEPTSQTCSTCGVKDGPKPLQVREWTCTACGTVHDRDHNAAINVKQAAGLAASACGAPVRPGAIPAQREETGSHGLPTEPRAALEHHHHHH	not soluble
MGNKAERHRAIQEIVRREEIGTQKELVERLRQLGFEVTQATVSRDIAELGLARIALGKGRHRYVLPAADLPENAYEELKRQFGLFVRDVDRGGNLLVVKTAEGHASGIAYLLDRLRRDEIVGTLAGDDTILVVARTEEAAQALEDEFAGLLVEGRALRRALSGS	soluble
MEIEVTPVDILLQLVKMGKVDPWNIDIVDLTEKYIKMLREMQELDLRISARAILAAAILVRMKSEALLNEDSREQEEKEEERIRVEVDPLVPPLRRVERYYTLDDLIDALMEALEEAERRKPKKKKKVEIDEEIFVIDDFRVDIEKYVEELYKVVKKIYEKTGTPIKFWDLVPDVEPKIIARTFLYLLFLENMGRVEIIQEEPFGEILVVPM	soluble
MRAMNDRLPSFCTPLDDRWPLPVALPGVQLRSTRFDPALLQPGDFALAGIQPPANILRAVAKRQAEFLAGRLCARAALFALDGRAQTPAVGEDRAPVWPAAISGSITHGDRWAAALVAARGDWRGLGLDVETLLEAERARYLHGEILTEGERLRFADDLERRTGLLVTLAFSLKESLFKALYPLVGKRFYFEHAELLEWRADGQARLRLLTDLSPEWRHGSELDAQFAVLDGRLLSLVAVGA	not soluble
MGSDKIHHHHHHMELYRDPSQPIEVRVRDLLSRMTLEEKVAQLGSVWGYELIDERGKFSREKAKELLKNGIGQITRPGGSTNLEPQEAAELVNEIQRFLVEETRLGIPAMIHEECLTGYMGLGGTNFPQAIAMASTWDPDLIEKMTTAVREDMRKIGAHQGLAPVLDVARDPRWGRTEETFGESPYLVARMGVSYVKGLQGEDIKKGVVATVKHFAGYSASEGGKNWAPTNIPEREFKEVFLFPFEAAVKEANVLSVMNSYSEIDGVPCAANRKLLTDILRKDWGFEGIVVSDYFAVKVLEDYHRIARDKSEAARLALEAGIDVELPKTECYQYLKDLVEKGIISEALIDEAVTRVLRLKFMLGLFENPYVEVEKAKIESHRDIALEIARKSIILLKNDGILPLQKNKKVALIGPNAGEVRNLLGDYMYLAHIRALLDNIDDVFGNPQIPRENYERLKKSIEEHMKSIPSVLDAFKEEGIEFEYAKGCEVTGEDRSGFEEAIEIAKKSDVAIVVVGDKSGLTLDCTTGESRDMANLKLPGVQEELVLEVAKTGKPVVLVLITGRPYSLKNVVDKVNAILQVWLPGEAGGRAIVDIIYGKVNPSGKLPISFPRSAGQIPVFHYVKPSGGRSHWHGDYVDESTKPLFPFGHGLSYTKFEYSNLRIEPKEVPPAGEVVIKVDVENIGDRDGDEVVQLYIGREFASVTRPVKELKGFKRVSLKAKEKKTVVFRLHMDVLAYYNRDMKLVVEPGEFKVMVGSSSEDIRLTGSFSVVGEKREVVGMRKFFTEACEE	not soluble
HLPETIYVIRKGDMVIRPKYDEYQQTNGTEIIRFDQTRKESPFKVQRIIERSCKFYGNNYISKKAETNRITGISSKPPILLTPLFPTYFFPTHSDRQEENIWINMHYIENVKELKNRKSKIIFANGDSLTLNVSFHSLWHQYTNAIIYYYMVDKQSRMKSNNPEQPIDYNQSSLNIFEALSRYSLFEEN	not soluble
MTRVIIDGDACPVVDSVIELTTGTGIFVTILRSFSHYSNKVLPNHVETIYIDDGPDAVDYKIVKLATPEDIVITQDYGLASLLLSKVKIVMHHKGHLYRSSNIDMLLQQRYNNAQIRKQGGRHKGPPPFSKEDKKQFERAFKSVIKQLLEHHHHHH	not soluble
MKIEAISTTIVDVPTRRPLQMSFTTVHKQSYVIVQVKAGGLVGIGEGGSVGGPTWGSESAETIKVIIDNYLAPLLVGKDASNLSQARVLMDRAVTGNLSAKAAIDIALHDLKARALNLSIADLIGGTMRTSIPIAWTLASGDTARDIDSALEMIETRRHNRFKVKLGARTPAQDLEHIRSIVKAVGDRASVRVDVNQGWDEQTASIWIPRLEEAGVELVEQPVPRANFGALRRLTEQNGVAILADESLSSLSSAFELARDHAVDAFSLKLCNMGGIANTLKVAAVAEAAGISSYGGTMLDSTVGTAAALHVYATLPSLPYGCELIGPWVLGDRLTQQDLEIKDFEVHLPLGSGLGVDLDHDKVRHYTRAA	soluble
DYKDDDDKLAAAQYPVVNTNYGKIRGLRTPLPNEILGPVEQYLGVPYASPPTGERRFQPPEPPSSWTGIRNTTQFAAVCPQHLDERSLLHDMLPIWFTANLDTLMTYVQDQNEDCLYLNIYVPTEDDIHDQNSKKPVMVYIHGGSYMEGTGNMIDGSILASYGNVIVITINYRLGILGFLSTGDQAAKGNYGLLDQIQALRWIEENVGAFGGDPKRVTIFGSGAGASCVSLLTLSHYSEGLFQKAIIQSGTALSSWAVNYQPAKYTRILADKVGCNMLDTTDMVECLRNKNYKELIQQTITPATYHIAFGPVIDGDVIPDDPQILMEQGEFLNYDIMLGVNQGEGLKFVDGIVDNEDGVTPNDFDFSVSNFVDNLYGYPEGKDTLRETIKFMYTDWADKENPETRRKTLVALFTDHQWVAPAVATADLHAQYGSPTYFYAFYHHCQSEMKPSWADSAHGDEVPYVFGIPMIGPTELFSCNFSKNDVMLSAVVMTYWTNFAKTGDPNQPVPQDTKFIHTKPNRFEEVAWSRYNPKDQLYLHIGLKPRVRDHYRATKVAFWLELVPHLHNLNEIFQYVSTTTKVPPPDMT	soluble
MIHETAQIHPTSVVEEGAIIGANVKIGPFCFVDSKVEIGEGTELLSHVVVKGPTKIGRFNRIFQFASIGEACQDLKYAGEDTQLIIGDRNTIRESVTMHRGTVQDKGITIVGSDNLFMINAHVAHDCVIGDRCIFANNATLAGHVKVGNQAIVGGMSAIHQFCHIGDHCMLGGGSIVVQDVPPYVMAQGNHCAPFGINVEGLKRRGFDKAEIHAIRRAYKSLYRNGLTLEAAKAEIAQEAEQYPSVKLFLDFLEKSERGIIR	not soluble
MVNKRTVTELSLFAGLIVSMHVAYYTIQNNPSLVAPHQRQELFYVRWLKEKIPALRPYGVTDDKTPKADQ	not soluble
MSLELKITDFKVFVAQANFEWAFVRIYSKDLYGTGEAGPAPGLKGMESEFIQLLIGEDAFKVNRIAEKLRYATLYSGTTVYHLISAINIALYDLIGKYLNVPIYKLLGGDKTEIPVYVDAHGGKGLEAINALHLPVNLPWIKEAEVETNRLITTNNPVHGRLSMEKWNEDYSPEAYAKRALKMKNEGYKAMKFDLDVPTPYIDLRRVRNGDLSLKDIDYMVDIVKAVRESVGDEVEIMFDLHWRYNLNTAIRICKALEPYRLRWLEDPMPAIMAVSNYDELKLLTSQCSVPIETGENLYTVYQFKDLLNTGVRVWAPDIVKAGGITEGRRIAELAAMYDIEYSPHNIASPIGTMAHAHVGSIANTFGFVEFHGHDVPFWNEIVKPKRKIIEDGVIKLTDDPGLGIDLDDEVMRKYWPTYELEGHHHHHH	not soluble
MKHLNFILAGLFFLCGLCCRAQVLPLEENVVLNTKEGQIKGKLLLPGGVKTCPVVLIIAGSGPTDMDGNSAIGNLRNNSLKFLAEGLAANGIASLRFDKRGIGTSASAGKEEAKLRFEDYVNDVTGWIDYLAKEKRFTTITVAGHSEGALIGMLACQNRPKVKGYISVAGAGRPAYEIIEAQVAAQQNPEAVRKEVASINGSLKNGKEVSDVPAYLQSLYRASVQPYLISWFKYNPRTVIASVKVPVLIVQGKNDIQVSVEDAELLKKGCPAAELLLIDKMNHVLKDCESKAVQQQMLTYGNPSLPVNSTLIASVSTFVKKLK	not soluble
YFNLQFGANLDVYLTKKWSVGADLLLSFKTYQYKNTLLGYSELTMKENQLWLELPIVLKYTMGQKKLRYYLQAGGAVSMILSSNSNIVRKDAATQSNQAIGPDINTRDLRNMFNYSLVGGGGIRYKAGYGYLVLDVKYMYGLNNISDMDNKYSNDELIYKYGYIDNDFTLNSLMFSIGYYKSFYKPKKLPTYEK	not soluble
MSIVAKSYEESADPVVAYCAEHTAVQTPLQAELQKETLTNAPHSGMLGAPEVLTFGENFIKFLGAKRVLDVGTFTGASALAWALAVPDDGEVFTFDIDHANYRKFGVPILSKCEKTFKKIKPVEGPGVESLDKLIADGQSGTFDFAFIDADKANYSNYYEKCVSLLRKGGVIFVDNSLWDGAVCDPAKRTDPRTAAIHEMNDKIYQDDRTYSALLNLGDGIHMAFKK	not soluble
MSLKRQRIVIKIGSSSLTTKQGALDLEKLEGYVRAIVNLRKAGHEVILISSGAVAAGFSRLGYPVRPTTMAGKQAAAAVGQALLMQHYMERFHQHGIIAAQLLLTRKDFQNQTQYTNAYSALMELLKRGALPIINENDSTSIAELTFGDNDMLSALVSGLIHAHTLCILTDVNGLYDANPKTHPNAKRYQYLPTIPDEMLQMGGEAGSNVGTGGMKSKVAAAQTALSLGVDVFIGKASGEHALLDILSGKGDGTYVGNTGDLMEGKTKQWIRLHSPVSGVVRIDQGAERAIMNEGKSLLPAGVTSVHGTFQAGDVVHIWNEQNKVIAKGQVTLSSEQLRKVQGRKSDEAKQLIPLVRDEVVHRDQLVIQEKELNESEGHHHHHH	not soluble
